Test results as given in PMC9720079, “Identification and Characterization of a Bacteriocin from the Newly Isolated Bacillus subtilis HD15 with Inhibitory Effects against Bacillus cereus” (Journal of Microbiology and Biotechnology, 2022).
Ends that are not written are not given here.

How the values were obtained:
[1] = pH stability of bacteriocin, relative antimicrobial activity; assay type: physicochemical; conditions: 12 h; for Relative activity (%): substance:buffer 1:15, 37°C, read-out agar well diffusion
Experimental: (§1) To evaluate the pH stability of the antimicrobial substance, the buffers were prepared with 0.1 M glycine-HCl buffer (pH between 2 and 4), 0.1 M sodium acetate buffer (pH between 4 and 6), 0.1 M sodium phosphate buffer (pH between 6 and 8), and 0.1 M Tris-HCl buffer (pH between 8 and 10). The antimicrobial substance was mixed with buffer at a ratio of 1:15 and incubated at 37°C for 12 h, and relative antimicrobial activity was measured. To evaluate temperature stability, purified bacteriocin was incubated at 0°C, 20°C, 40°C, 60°C, 70°C, 80°C, or 90°C for 12 h, and at 100°C for 1 h. Relative antimicrobial activity was assessed using the agar well diffusion method, and the zone of inhibition was measured in millimeters. To assess the effect of various enzymes on antimicrobial activity, lysozyme (E.C. 3.2.1.17), α-amylase (E.C. 3.2.1.1), lipase (E.C. 3.1.1.3), protease (E.C. 3.4.24.31), and proteinase K (E.C. 3.4.21.64) (all from Sigma-Aldrich) and pronase E (E.C. 3.4.24.4; Merck Millipore, USA) were prepared in sodium phosphate buffer (pH 7.0) at a final concentration of 4 mg/ml. Purified bacteriocin was mixed with each enzyme at 2 mg/ml and incubated at 37°C for 30 min, and the relative antimicrobial activity was measured.

[2] = Temperature stability of bacteriocin, relative antimicrobial activity; assay type: physicochemical; conditions: for temperature range of stable activity: 12 h incubation; for Relative activity (%): 12 h, read-out agar well diffusion
Experimental: as §1

lipase (E.C. 3.1.1.3) = assay: Effect of enzyme treatment on antimicrobial activity; assay type: in vitro ADME; conditions: 30 min
Experimental: as §1

α-amylase (E.C. 3.2.1.1) = assay: as above; assay type: in vitro ADME; conditions: 2 mg/ml, pH 7.0, 37°C, 30 min
Experimental: as §1

[3] = biological target: T1, proteinase K (E.C. 3.4.21.64) (Parengyodontium album, UniProt P06873); assay: as above; assay type: in vitro ADME; conditions: 30 min; for effect of proteinase K treatment on antimicrobial activity: 2 mg/ml, pH 7.0, 37°C
T1 construct: purchased Sigma-Aldrich
T1 sequence (P06873 106-384): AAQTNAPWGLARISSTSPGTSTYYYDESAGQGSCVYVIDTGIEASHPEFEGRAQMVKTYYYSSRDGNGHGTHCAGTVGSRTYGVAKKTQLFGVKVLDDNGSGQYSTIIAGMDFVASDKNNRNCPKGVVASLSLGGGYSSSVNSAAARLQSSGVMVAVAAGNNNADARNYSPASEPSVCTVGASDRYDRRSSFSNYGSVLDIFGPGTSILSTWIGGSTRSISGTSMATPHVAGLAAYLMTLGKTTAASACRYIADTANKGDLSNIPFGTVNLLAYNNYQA
Experimental: as §1

[4] = tested on: Listeria monocytogenes ATCC 15313; assay: Inhibitory spectrum, well diffusion method; assay type: cell-based; conditions: for antimicrobial activity against L. monocytogenes: well diffusion method
Experimental: (§2) Antimicrobial activity against several gram-positive and gram-negative bacteria was assessed using the agar well diffusion method, with some modifications. Cultures were incubated in tryptic soy medium at 37°C for 60 h. Cell-free supernatants were prepared by centrifugation (3,800 ×g, 4°C, 30 min) and used as an antagonistic substance. Each pathogen at 7.0 log CFU/ml was spread on a TSA plate. An 8-mm-diameter well was created using a cork borer on the agar plate, and 50 μl of the cell-free supernatant was added to the wells. The plates were left undisturbed for a few hours to allow the supernatant to diffuse into the agar and then cultured at 37°C for 18 h. The diameter of the resultant growth inhibition zone was measured as a measure of antimicrobial activity.

[5] = tested on: Bacillus cereus KCCM 40152; assay: Inhibitory spectrum, well diffusion method; assay type: cell-based; conditions: for antimicrobial activity against B. cereus: well diffusion method
Experimental: as §2

[6] = tested on: Staphylococcus aureus ATCC 25923; assay: Inhibitory spectrum, well diffusion method; assay type: cell-based; design: key to Antibacterial activity: +++: Greater than 15 mm; −: no inhibition zone
Experimental: as §2

B. cereus = assay: Antimicrobial activity in arbitrary units, serial 2-fold dilutions, of purification steps; assay type: cell-based, Bacillus cereus
Experimental: The protein content in the bacteriocin solution was measured using the modified Lowry method. A 50 μl volume of bacteriocin was mixed with 550 μl of biuret reagent (0.75 mM cupric sulfate and 94 mM sodium hydroxide) and incubated for 10 min at 25°C. A 25 μl volume of Folin–Ciocalteu’s phenol reagent (Sigma-Aldrich, USA) was then added, followed by incubation for 30 min at 25°C. Absorbance was measured at 725 nm using a VersaMax ELISA Microplate Reader (Molecular Devices, USA), and a standard curve was constructed using bovine serum albumin (Sigma-Aldrich). Antimicrobial activity was measured as arbitrary units per milliliter of purified microbial culture using serial 2-fold dilutions of the antimicrobial substance. […] AU/mL was calculated by multiplying AU by the dilution factor.

[7] = tested on: Bacillus cereus KCCM 12667; assay: Agar well diffusion test of purified bacteriocin; assay type: cell-based; conditions: Fig. 3C
Experimental: as §2
The molecular weight of bacteriocin was determined by tricine sodium dodecyl sulfate-polyacrylamide gel electrophoresis (SDS-PAGE; Bio-Rad, USA) at 100 V for 5 h on a 20% polyacrylamide gel with an ultra-low-range molecular weight marker (1,060–26,600 Da; Sigma-Aldrich), followed by silver staining (Amersham Biosciences, Sweden). Direct detection was then performed to determine whether the protein bands corresponded to bacteriocin [23].

gram-negative bacteria = assay: Inhibitory spectrum, well diffusion method, gram-negative bacteria as a group; assay type: cell-based
Experimental: as §2

[8] = tested on: Vibrio parahaemolyticus KCCM 11965; assay: Inhibitory spectrum, well diffusion method; assay type: cell-based; design: key: +++: Greater than 15 mm; −: no inhibition zone; conditions: inhibition zone class
Experimental: as §2

[9] = tested on: Salmonella choleraesuis KCCM 40736; assay: Inhibitory spectrum, well diffusion method; assay type: cell-based; design: key: +++: Greater than 15 mm; −: no inhibition zone; conditions: inhibition zone class
Experimental: as §2

[10] = tested on: Pseudomonas aeruginosa KCCM 12539; assay: Inhibitory spectrum, well diffusion method; assay type: cell-based; design: key: +++: Greater than 15 mm; −: no inhibition zone; conditions: inhibition zone class
Experimental: as §2

[11] = tested on: Shigella sonnei KCCM 41282; assay: Inhibitory spectrum, well diffusion method; assay type: cell-based; design: key: +++: Greater than 15 mm; −: no inhibition zone; conditions: inhibition zone class
Experimental: as §2

[12] = tested on: Escherichia coli O157:H7 ATCC 43894; assay: Inhibitory spectrum, well diffusion method; assay type: cell-based; design: key: +++: Greater than 15 mm; −: no inhibition zone; conditions: inhibition zone class
Experimental: as §2

[13] = tested on: Salmonella enteritidis CCARM 8206; assay: Inhibitory spectrum, well diffusion method; assay type: cell-based; design: key: +++: Greater than 15 mm; −: no inhibition zone; conditions: inhibition zone class
Experimental: as §2

[14] = tested on: Vibrio vulnificus ATCC 29306; assay: Inhibitory spectrum, well diffusion method; assay type: cell-based; design: key: +++: Greater than 15 mm; −: no inhibition zone; conditions: inhibition zone class
Experimental: as §2

[15] = tested on: Cronobacter sakazakii KCTC2949; assay: Inhibitory spectrum, well diffusion method; assay type: cell-based; design: key: +++: Greater than 15 mm; −: no inhibition zone; conditions: inhibition zone class
Experimental: as §2

[16] = tested on: Shigella flexneri KCCM 11937; assay: Inhibitory spectrum, well diffusion method; assay type: cell-based; design: key: +++: Greater than 15 mm; −: no inhibition zone; conditions: inhibition zone class
Experimental: as §2

[17] = listed as purified protein from B. subtilis HD15
[18] = listed as B. subtilis HD15 bacteriocin
[19] = well diffusion, inhibition zone class

SIGACLVDGPIPVIEG [bacteriocin from Bacillus subtilis HD15, 3.6 kDa bacteriocin related to subtilosin A, purified from B. subtilis HD15 culture by ammonium sulfate, DEAE-Sepharose and Sephacryl steps]
Relative activity (%) ([1]; pH 2, 0.1 M glycine-HCl buffer): 50% | Relative activity (%) ([1]; pH 3, 0.1 M glycine-HCl buffer): 80% | antimicrobial activity remaining ([1]; pH 3 to 9 as worded in text, 37°C): 80% | Relative activity (%) ([1]; pH 4, 0.1 M glycine-HCl or sodium acetate buffer): 95% | Relative activity (%) ([1]; pH 5, 0.1 M sodium acetate buffer): 100% | antimicrobial activity maintained ([1]; pH 5–7, 37°C): 100% | Relative activity (%) ([1]; pH 6, 0.1 M sodium acetate or sodium phosphate buffer): 100% | Relative activity (%) ([1]; pH 7, 0.1 M sodium phosphate buffer): 100% | Relative activity (%) ([1]; pH 8, 0.1 M sodium phosphate or Tris-HCl buffer): 95% | Relative activity (%) ([1]; pH 9, 0.1 M Tris-HCl buffer): 80% | Relative activity (%) ([1]; pH 10, 0.1 M Tris-HCl buffer): 30% | antimicrobial activity after incubation ([2]; 0–50°C for 12 h): 100% | temperature range of stable activity [2]: up to 70 °C | temperature range of stable activity [2, 17]: 0–70 °C | activity remaining ([2]; after 12 h at 70°C and over a pH range between 3 and 9): more than 70% | Relative activity (%) ([2]; heat 50°C): 100% | Relative activity (%) ([2]; heat 60°C): 95% | Relative activity (%) ([2]; heat 70°C): 70% | Relative activity (%) ([2]; heat 80°C): 20% | Relative activity (%) ([2]; heat 90°C): 0% | effect of lipase treatment on antibacterial activity (lipase (E.C. 3.1.1.3); 2 mg/ml, pH 7.0, 37°C): no effect | Relative activity (%) (lipase (E.C. 3.1.1.3); lipase 2 mg/ml, sodium phosphate buffer pH 7.0, 37°C, read-out relative antimicrobial activity): 100% | effect of amylase treatment on antibacterial activity (α-amylase (E.C. 3.2.1.1)): no effect | effect of proteinase K treatment on antimicrobial activity [3]: lost | effect of proteinase K treatment on antimicrobial activity [3, 17]: completely inhibited | Relative activity (%) ([3]; proteinase K 2 mg/ml, sodium phosphate buffer pH 7.0, 37°C, read-out relative antimicrobial activity): 0% | antimicrobial activity against L. monocytogenes [4, 18]: strong inhibition | antimicrobial activity against L. monocytogenes [4, 17]: high antimicrobial activity | Antibacterial activity [4, 19]: +++ (Greater than 15 mm) | antimicrobial activity against B. cereus [5, 18]: strong inhibition | antimicrobial activity against B. cereus [5, 17]: high antimicrobial activity | Antibacterial activity [5, 19]: +++ (Greater than 15 mm) | antimicrobial activity against Staphylococcus aureus ([6]; well diffusion method): no activity | Antibacterial activity [6, 19]: − | Total activity (AU) (B. cereus; purification step from 500 ml culture, reciprocal of maximum 2-fold dilution giving a transparent zone, indicator strain not given): 10,500 AU | Specific activity (AU/mg) (B. cereus; total activity per total protein (modified Lowry) of purification step): 413.4 AU/mg | Antibacterial activity, zone around purified bacteriocin [7]: clear zone | antimicrobial activity against gram-negative bacteria (gram-negative bacteria): no activity | Antibacterial activity [8]: − | Antibacterial activity [9]: − | Antibacterial activity [10]: − | Antibacterial activity [11]: − | Antibacterial activity [12]: − | Antibacterial activity [13]: − | Antibacterial activity [14]: − | Antibacterial activity [15]: − | Antibacterial activity [16]: −
